The values below come from article PMC5087277 (ACS chemical biology, 2016).

Data set [1] concerns ^sc6ClpX^ΔN-bio single-chain ClpX^ΔN pseudohexamer. The data set can be described thus: BLI.
Data set [2] concerns the target ^sc6ClpX^ΔN-bio single-chain ClpX^ΔN pseudohexamer (E. coli). Description: BLI.
Data set [3] deals with ClpXP (sc6ClpXΔN-bio with ClpP; ATP site on ClpX) (Escherichia coli, UniProt P0A6H1, C169S/K408E). Description: bio-layer interferometry, ClpP association to immobilised ClpX. Format: binding. (In general: In BLI a coated tip is dipped into the sample, and binding shifts an interference pattern.)
Data set [4] deals with Nc1ncnc2c1ncn2[C@@H]1O[C@H](COP(=O)(O)OP(=O)(O)OP(=O)(O)O)[C@@H](O)[C@H]1O. Description: coupled ATP hydrolysis assay. In kind it is biochemical, Escherichia coli. The settings on record: pH 7.5.
The mark [5] stands for this setting: no ClpP, Hill n = 2.4, 10 mM MgCl2, 30 °C.
The mark [6] stands for this setting: excess ClpP (1 μM), Hill n = 2.2, 10 mM MgCl2, 30 °C.

Bounds are passed on as bounds.

As to E. coli ClpP (C91V, C113A), in data set [1], the “kobs of association at 200 nM ClpP, maximal fitted value against ATP” value was determined as 0.138 ± 0.001 s^−1 for kobs; the “maximal rate of kobs-1 (double-exponential association, amplitude ~70%)” value was “the maximal rate was 22 ± 7 s^−1”; the “maximal rate of kobs-2 (double-exponential association, amplitude ~30%)” value was “the maximal rate was 0.54 ± 0.2 s^−1”.
Regarding E. coli ClpP (C91V, C113A) (enzyme), in data set [2], the Kd (usually a measure of binding affinity in units of concentration) was less than 0.0001 µM, the dissociation rate constant in the absence of nucleotide or presence of ADP was less than 0.07 s⁻¹, the fold more kinetically stable in 7:1 ADP:ATP against ADP alone came out at 100 fold and the half-life of ADEP-2B-induced dissociation amounted to 1 s. Moreover, in data set [2], the half-life of dissociation in ADP (complex formed with ATP) is 5 s; the half-life of dissociation in ADP (complex formed with ATPγS) worked out at 20 s; the half-maximal binding, total ClpP concentration was determined as 160 pM; the maximum dissociation rate constant with ADEP-2B (hyperbolic fit) is 2 s⁻¹.
As to `Nc1ncnc2c1ncn2[C@@H]1O[C@H](COP(=O)(O)OP(=O)(O)OP(=O)(O)O)[C@@H](O)[C@H]1O` [ATP], the midpoint of the response in data set [3], the EC50, lay at 100 ± 2 µM.
As for “sc6ClpXΔN-bio (Escherichia coli K-12; C169S/K408E)”, in data set [4] (setting [5]), the K0.5 came to 42 ± 3 µM and the kcat is on record as 73 min^−1 enz^−1.
“ClpXP (sc6ClpXΔN-bio with ClpP; ATP site on ClpX) (Escherichia coli K-12; C169S/K408E)”: in data set [4] (setting [6]), the K0.5 is 29 µM and the kcat is 41 min^−1 enz^−1.
